The nature of the data set: soluble on expression in E. coli; label from the status in PepcDB or PDB records.
As to “MSEILVLNCGSSSVKFALINPHTSQSLVTGLAENIATKNCKVVFKAEHKIVKYLENGSYKDVFEMLKDFLVENKHLEKIVAIGHRVVHGGQYFSKSVLINADSLEKIKACIALAPLHNPAHIEGIRFCQQIFPELPQVAVFDTAFHQTMPSYIAEYAIPYELTHKHNIRKYGAHGTSHKYVSEQAAKILTQQKANVIVAHLGNGCSITAVVDGKSIDTSMGLTPLDGLVMGTRSGCIDPSIFAYISDNLGWSVTEITNMLNKQSGLLGICGHNDMREVSQLAAKGDSLAKLAIEIFSHRVAKFVASYMIYFNKLDALVFTGGIGENAANIRKNIISKLANLGFMIDHQKNSNSETFINSKNSHNIMVIATNEELMIAQETQNLI”, the “soluble on expression in E. coli” value is given as “soluble”. Next, “MNNVLLEVKDLETSLKINNEWLATVENISFELSKGEVLGIVGESGCGKSILSKSIIKLLPEKISKLSNGEVIFDGKRIDTLNEKQLLDIRGNDIAMIFQEPMTALNPVFTIKNQLVESIKSHKKISKKEANKLAKDLLKKVGIARQDEILNSYPHQLSGGMRQRVMIAMAISCSPKLLIADEPTTALDVTIQAQILDLLKELQKETQMAIMMITHDLSVVAEFCDKVLVMYAGQIVEFGGIKEILHNPKHPYTQKLLSTIPKLKEEQKRLETIEGIVPSIQAFHVNKCRFANRCNKKLDICNNQSPKMHVCEDVIVRCHLYKNEYKEI”: “not soluble”; “MLFDMDGVLFDSMPYHAEAWHKTMKAHGLNLSREEAYMHEGRTGAGTINIVCQRQLGRDATQEEIESIYLEKSIEFNKHPQAERMPGAWELLQKIKAEGIIPTVVTGSGQASLLDRLEHNFPGMFRQELMVTAFDVKYGKPNPEPYLMALEKGGLKPNEAIVIENAPLGVEAGHKAGIFTIAVNTGPLNGEILLNAGADLLFPSMQALCESWEKLVRLLH”: “not soluble”; “MGSDKIHHHHHHMRFMLYEFLKNNYKEAEPIFFSDIVIEGITKSAVNQQLKKLCDEGKLQKYENGIYYLPKKSRLKTNVGVNADMVARYKYVSRGGKVDGFYSGNTFANQLGISTQVPNKVEIVSNNMAAKIREIPIGKRTFIVRRPVVPVNEENVYVLQLLDLLKNLDMYLDESYDVAHDKVSQFVQIHGITKNDVDSYIREFPIAIFRYYYELRLDDVFA”: “not soluble”. Next, “MGSDKIHHHHHHMDFDTGRRIDRRAIPADAVEGTWTASDGHPIRRIDWPGHSEPDAPTAPRGSLLFLPGRGDFYEKYLESLDYWHCEGWRVTALDWRGQAGSGRLSSDPMTGHVPDFGLWLDDLGAFWTDWVRDTPGPHVVVGHSMGGHLVLRALAERRIDPAAVVLSAPMLGFLTPGPNRVLHRVAEFMCRIGDPERSAWKSSEKPGATTAARNTLLTHDEARYGDETHWKTVRPELAMGPGSWRWVERAYASMLVLDRPGLLEAVDVPVLLLAARHDGLVSWRAIERAARRLPRAQLMTWGREARHELLREADPVRDKVMHAIDDFLDRLAPPTGEDAPA”: “not soluble”; “MKFLILSVSAGGGHIHAAFALKKYIAKYLEGSQVKMLDTIKYLNPFLDKVLIGGYLKTLKVSPALFGKLYNFTEKDDNLASLSNKINEFMAYKLIPIIEDFNPDVIICTHPFPTEMVSILKSKESLKTPMLCILTDYAPHSFWIRPQVNSYVVSNSDMVDEMVRRGVNRENIYDLGIPVDPDFIRNFDKIETLNELNLSLNKKTILIMGGSLGIGKIEDIYEALSKSRANIQIIIITGNNKKLYSKLLELAEDSYVETRILGYTRDVNRYMQASDLLLTKPGGLTITEALICRVPLAVFSPIPGQEEKNEDFLLKHNLAISIRDSENCLGIIESLISNPELLQAMKDNCNKFSKPSSGKDICNLLINLINKNQKIDVNNADYRN”: “not soluble”. With “MSLKTPLKDEVFSFIDLETTGSCPIKHEILEIGAVQVKGGEIINRFETLVKVKSVPDYIAELTGITYEDTLNAPSAHEALQELRLFLGNSVFVAHNANFDYNFLGRYFVEKLHCPLLNLKLCTLDLSKRAILSMRYSLSFLKELLGFGIEVSHRAYADALASYKLFEICLLNLPSYIKTTMDLIDEGHHHHHH”, the “soluble on expression in E. coli” value was “not soluble”.

As to “MSISWGAQYPKLKTNLRLGINRLQLLGKKKTEMAMKARTEIADYIAANKPDRARIRVEHIIREDYVVEAFEILEMYCDLLLARFGLIEQMKTLDDGIAEAVISIMWAAPRLATDIAEFKTISDQLTIKYGKPFAEAARANQLEFPARVNPKIISKLGAAAPPKLLVERYMIEIAAAAGVPFVPDPDVMREDEVHQAEQILIDFKNAGGNGPSGPDGPPPPPSNPYGGSGNDNGSSGGGGGYGWNLENQSAIGSGVMPHGTAIGGGVQPVSNFIPPPPNRHPNEPPQDDENIYDHIPDVSGGNIYEVPSRDHYDFPPDAFNEEPPKTNPTTGVINLPKIGPNGLPIYPGQQQPKGPGGAQAYPALSQRNSLVNPNLQPNHPTAPPQSLRKPDDFSDLSFPEPPSSFVGGNNKPGGPGGNNGGGAGNGGFDDFDDLARRFEELKKIK”, the “soluble on expression in E. coli” value was “not soluble”. On to “MFYEKIQTPAYILEEDKLRKNCELLASVGEKSGAKVLLALKGFAFSGAMKIVGEYLKGCTCSGLWEAKFAKEYMDKEIHTYSPAFKEDEIGEIASLSHHIVFNSLAQFHKFQAKTQKNSLGLRCNVEFSLAPKELYNPCGRYSRLGIRAKDFENVDLSTIEGLHFHALCEESAGALEAVLKVFEEKFGKWIGQMKWVNFGGGHHITKKGYDVEKLIALCKNFSDKYGVQVYLEPGEAVGWQTGNLVASVVDIIENEKQIAILDTSSEAHMPDTIIMPYTSEVLNARILATRENEKISDLKESEFSYLLTGNTCLAGDVMGEYAFDKKLKIGDKIVFLDQIHYTIVKNTTFNGIRLPNLMLLNAKNELQMIREFSYKDYSLRN”, for which the “soluble on expression in E. coli” value is “not soluble”.

Consider “MSLAQKRYKHILWDLDGTIIDSKIGVSESIRYCLKYFNIEVTCLDEFKPMIGPPLQDSLREIYNFSPQQVEIACKLYDEYYMKKGIHEYKVFQNIEKVLSQLQNDNKELYVATTKPEYAAKQLLADCKLDTYFKFIGGDNEEFTRSNKADVIQYVLSANNISATDNVVMIGDRKYDMLAAKKIGIDTIGVLYGYGDRNELLTNGAQYIIEEPYELLNLLKGEGHHHHHH”, for which the “soluble on expression in E. coli” value was “soluble”. As for “MTVQIPKLLFLHGFLQNGKVFSEKSSGIRKLLKKANVQCDYIDAPVLLEKKDLPFEMDDEKWQATLDADVNRAWFYHSEISHELDISEGLKSVVDHIKANGPYDGIVGFSQGAALSSIITNKISELVPDHPQFKVSVVISGYSFTEPDPEHPGELRITEKFRDSFAVKPDMKTKMIFIYGASDQAVPSVRSKYLYDIYLKAQNGNKEKVLAYEHPGGHMVPNKKDIIRPIVEQITSSLQEASE”, the “soluble on expression in E. coli” value is given as “soluble”. On to “MRRRRRRDGFYLAPDFRHREAEDMAGVFDIDLDQPEDAGSEDELEEGGQLNESMDHGGVGPYELGMEHCEKFEISETSVNRGPEKIRPECFELLRVLGKGGYGKVFQVRKVTGANTGKIFAMKVLKKAMIVRNAKDTAHTKAERNILEEVKHPFIVDLIYAFQTGGKPYLILEYLSG”, for which the “soluble on expression in E. coli” value is listed as “soluble”.

Turning to “MRPPISSGRIGDGGLDSCPEKKEEEKDSTSRLCSDLSDLRIERIGSTPAFQWISVYTKRPPMKQRFHHNIANSRLSHHAEKGKRDGLFISCVASEANLWALVMDAGTGFTSQVYKFSSTFLPKDWIMKQWEKNYYISSIAGANNGSSLVVMSKGTRYIQQSYKTGDSIPLKWMDKKWKEGFHVTSMTTGGSRWGVVMSRNSGFSEQVMEVDFLNPSEDINRRLESGYMITSMAATADQAALILSIPRRKITDEIQETLRTSSFPSSYVKDKWGKNMFITSICYGRTV”, the “soluble on expression in E. coli” value is given as “soluble”.

Consider “MELELDDDVFFADISKQLNLLITDEDEQNPISLSSSVSFQGLFRGNYQTSATPYMMYNEQINYNVIRESKGTGVFIPRSSQPRRKHNHHPHQKKQGRFIGSFIPKQQFPHHGHDNNLTTLNNNNQESITFHHASTNPRRTYRDAASLFT”, for which the “soluble on expression in E. coli” value is recorded as “not soluble”. The same measure for “MGSDKIHHHHHHMEERVVVEGLTGGYRPNKPVLHDLHLKIRANELVGLIGLNGAGKSTTIKHILGLMEPHKGSVMINGNTITTDRETYRRSLAYIPETPILYEELTLWEHMELTALAYGIERKAFEERSKLLLDEFRMTKMKHWYPSHFSKGMRQKVMIICAFLIDPPVYIVDEPIVGLDPIGIQSFLQLLATKKKNGAAVLMSTHILATAERYCDRFIILNRGRIVLEGTLESMRAELNMPDATLDDIYIEMTKEESQ”: “not soluble”; for “GPGSMERYAFAEDYKNARGIPRVEYISDMATFVKNNGGADALISRLILDSSKYEHTEKRLVSSMANLDHKIPTIKKTLHALNFLKKRLQEDQTPVRSYYCLTDAVFGEAEVVPQETVHLWMGAKVMVEYTFDEALQLLEKNLANAETNLKATKEDLAWVQEQMTNLQINISRVYNYDLKNKRTNGGAAEPSA”: “soluble”. Next, “MKKELLTRFMEKRIVELKKEQRNGTAHVYQSTLNRLKNFMNGREITFSQLTPEWLALFEQKLLADQLKWNTISTYMRMLRSVYNQALERGVATYVPRLFNKVHTGIDCPVKRAVSPEVICRLMTDRKPLPGKLAFSRDLFVLLFLLRGMPFVDLAFLRRCDLQGNVITYHRRKTSRKLTVVVGKEAMEIIQKYMYAIPDSPYLFPIIQNPGKDEYGQYARMLRLQNYRLTQVANILGIRDRLSTYTARHTWATTALRQNYNSSLICDAMGHSSVKVTETYFQPYRDDEVNRMNSSLITYILSKKKRGTDKKIRS”: “not soluble”; “GPGSMKLRCFLLRYYPPGITLEYETSAGQVGQKTIGLLSLTPTTPLEPLVDKIIAEEPLLNGKYHDQIVTYLQRLVEKLIAGNNPNQTFTLFKSLRAHMLPLTNCAFNKNGTKFVTGSYDRTCKVWETATGNELVSLEGHRNVVYCVGFNNPYGNRVATGSFDKTCKIWDGESGQCLHTLTGHVTEIVCMSFNPQSTLIGTGSMDNTAKVWDVETGQELHTLMDHTAEIVALNFNTYGDLIVTGSFDHTAKLWDVRTGTVVHTLREHRGEISSVQFNYASNLVVTGSIDRTCKLWDVASGRCVSTLRGHTDEVLDVAFSVSGNMVASASADTTARVYNTATCHCIASLNDHEGEISKLEFNPQGTKIITASGDKRCNLWSVETGQVLQSLVGHTDEIFSCSFNYEGDTILTGSKDNTCRIWKS”: “not soluble”; “MERVSITERPDWREKAHEYGFNFHTMYGEPYWCEDAYYKLTLAQVEKLEEVTAELHQMCLKVVEKVIASDELMTKFRIPKHTWSFVRQSWLTHQPSLYSRLDLAWDGTGEPKLLENNADTPTSLYEAAFFQWIWLEDQLNAGNLPEGSDQFNSLQEKLIDRFVELREQYGFQLLHLTCCRDTVEDRGTIQYLQDCATEAEIATEFLYIDDIGLGEKGQFTDLQDQVISNLFKLYPWEFMLREMFSTKLEDAGVRWLEPAWKSIISNKALLPLLWEMFPNHPNLLPAYFAEDDHPQMEKYVVKPIFSREGANVSIIENGKTIEAAEGPYGEEGMIVQQFHPLPKFGDSYMLIGSWLVNDQPAGIGIREDRALITQDMSRFYPHIFVE”: “soluble”. With “MNADGWLADTRSSYDTVAVSYADQLRGALAGTPYLRAALELFAGMIHTAGGGPVADVGCGPGHVTAHLHGLGVDAFGIDLSPAMIDVARRDHPDLRFEVGSMTDLNLADASVTALLAFWSLIHVPDDAIPAVFGHFRRVVRPGGPLLLGFHIGDESRLKTEGYGGHPMKVHVHHRQPVQVTAWLRDAGFTVEAQWLLGLDGHIPGAVLFAHRQSLEHHHHHH”, the “soluble on expression in E. coli” value is “not soluble”. With “MGSSHHHHHHSSGLVPRGSHMLELRLVQGSLLKKVLESIKDLVNDANFDCSSTGFSLQAMDSSHVALVSLLLRSEGFEHYRCDRNLSMGMNLGNMSKMLKCAGNDDIITIKADDGGDTVTFMFESPTQDKIADFEMKLMDIDSEHLGIPDAEYHSIVRMPSNEFSRICKDLSSIGDTVVISVTKEGVKFSTAGDIGTANIVLRQNTTVDKPEDAIVIEMKEPVSLSFALRYMNSFTKATPLSDTVTISLSSELPVVVEYKVAEMGYIRYYLAPKIE”, the “soluble on expression in E. coli” value is recorded as “soluble”.

Values taken from the DeepSol protein solubility set.
